Measured values taken from patent US7109015B2, “Removal of N-terminal methionine from proteins by engineered methionine aminopeptidase” (Academia Sinica, priority 2004, dated 2006).
Changes are numbered by the printed parent chain. In names and notes the source's numbering stands. Where two headings read alike, the source gives them in different places. Marks after values point to notes of the source that are not given here.

Assays:
synthetic oligopeptides = assay type: biochemical; conditions: for Specific activity (unit/mg): 4 mM oligopeptide, pH 7.5, 37° C.
Procedure: The oligopeptide substrates used in this experiment were synthesized on the 432A Synergy peptide synthesizer (Applied Biosystems, Foster, Calif., USA). The enzymatic activity of purified MetAP was assayed as described by Ben-Bassat et al., 1987. Briefly, the diluted MetAP enzyme in 10 μl was added to 90 μl of the substrate solution containing 4 mM oligopeptide, 0.1 M potassium phosphate buffer, pH 7.5 and 0.2 mM CoCl2, incubated at 37° C. for 10 min and stopped in boiling water for 2 min. After addition of 0.9 ml of color development mixture containing 0.2 mg of L-amino acid oxidase, 0.03 mg of horseradish peroxidase and 0.2 mg of o-dianisidine in 0.1 M Tris-HCl, pH 7.4, the mixtures were incubated for 10 min at 37° C., and the optical density at 440 nm was recorded. One unit of activity is defined as 1 μmol of amino acids produced per min under the assay conditions and the pure Met was used as standard. The N-terminal residues of the MetAP-treated oligopeptide were further verified by Edman degradation.

Met-tagged onconase = experiment: In vivo catalytic activity of MetAPs co-expressed with Met-tagged onconase in E. coli BL21(DE3); N-terminus by Edman degradation; assay type: cell-based; conditions: in vivo in E. coli
From the text: Residues Tyr168, Met206 and Gln233 in the putative substrate-binding site of E. coli MetAP were mutated by site-directed mutagenesis based on the crystal structure and amino acid sequence alignment of MetAPs (Ben-Bassat et al., 1987; Lowther et al., 1999; Walker et al., 1999). For the expression of secretory ribonucleases, the ribonuclease gene was cloned and expressed as described previously (Huang et al., 1998).
Most of the co-expressed target protein, e.g., onconase or RC-RNase L1, existed in insoluble cell lysate. They were denatured, renatured and purified as described previously (Liao et al., 2003). The purified ribonucleases were stored in 20 mM sodium phosphate, pH 7.0, for pyroglutamate formation at the N-terminus. Alternatively, the ribonuclease secreted into culture medium through pe1B system was concentrated and purified to electrophoretical homogeneity at a yield of 1˜5 mg per 1 liter of culture (Huang et al., 1998).

RC-RNase4 = experiment: In vivo Met removal, co-expression in E. coli, RC-RNase 4 substrate; assay type: cell-based, Rana catesbeiana; conditions: substrate MAAWA (SEQ ID NO:15)-RC4; solubility −
Procedure: The MetAP was expressed alone or co-expressed with a target protein, i.e., onconase and RC-RNaseL1, in E. coli BL21 (DE3) in the presence of 0.5 mM IPTG at 37° C.
Proteins in the cell pellet or in the soluble fraction were separated by 13.3% SDS-PAGE and contact-transferred to ProBlott™ membrane (Applied Bioystems) in transfer buffer (10 mM Tris-HCl, pH 7.5, 50 mM NaCl, 2 mM EDTA, 0.5 mM 2-mercaptoethanol) overnight. The five N-terminal residues of the transferred protein were determined by Edman degradation. The percentage of Met removal was calculated by dividing the amount of proteins initiated with the penultimate residue with the amount of total proteins (including proteins initiated with the penultimate residue and unprocessed protein initiated with Met) after the first degradation cycle. In theory, this percentage should remain the same after each degradation cycle. Therefore, in order to avoid experimental variation, the same calculation was made from five consecutive degradation cycles, e.g., M, Q, N, W and L for onconase. The efficiency of Met removal is reported as the mean values of at least three cycles.

[1] = target: Met-tagged onconase with different penultimate residue (Escherichia coli, UniProt P0AE18); conditions: adapted from Hirel et al., 1989, cited from earlier work
[2] = E. coli MetAP mutations; Chiu et al. 1999; cited from earlier work
[3] = substrate MAA-Onc, listed as wild type E. coli MetAP

B1: MetAP-YMQ: wild type E. coli Met aminopeptidase (SEQ ID NO:1) (protein, listed as Escherichia coli)
chain: MAISIKTPEDIEKMRVAGRLAAEVLEMIEPYVKPGVSTGELDRICNDYIVNEQHAVSACLGYHGYPKSVCISINEVVCHGIPDDAKLLKDGDIVNIDVTVIKDGFHGDTSKMFIVGKPTIMGERLCRITQESLYLALRMVKPGINLREIGAAIQKFVEAEGFSVVREYCGHGIGRGFHEEPQVLHYDSRETNVVLKPGMTFTIEPMVNAGKKEIRTMKDGWTVKTKDRSLSAQYEHTIVVTDNGCEILTLRKDDTIPAIISHDE
In vitro catalytic activity (synthetic oligopeptides; oligopeptides ranging from tetra- to dodecapeptides with Ala at the penultimate site): high catalytic activity | Specific activity (unit/mg) (synthetic oligopeptides; substrate MADY (SEQ ID NO:7)): 138 ± 8 unit/mg | Specific activity (unit/mg) (synthetic oligopeptides; substrate MADYLT (SEQ ID NO:8)): 138 ± 6 unit/mg | Specific activity (unit/mg) (synthetic oligopeptides; substrate MQDYLT (SEQ ID NO:9)): 0.43 ± 0.01 unit/mg | Specific activity (unit/mg) (synthetic oligopeptides; substrate […] (SEQ ID NO:5)): 85 ± 13 unit/mg | Specific activity (unit/mg) (synthetic oligopeptides; substrate […] (SEQ ID NO:6)): 0.62 ± 0.08 unit/mg | Catalytic activity (%): percent of penultimate residue removed (Met-tagged onconase; substrate MAA-Onc): 77% | Catalytic activity (%): removal of N-terminal Met (Met-tagged onconase; substrate MAA-Onc): 85% | Catalytic activity (%): percent of penultimate residue removed (Met-tagged onconase; [3]): removed | Catalytic activity (%): removal of N-terminal Met (Met-tagged onconase; [3]): removed | Catalytic activity (%): percent of penultimate residue removed (Met-tagged onconase; substrate MAG-Onc): 63% | Catalytic activity (%): removal of N-terminal Met (Met-tagged onconase; substrate MAG-Onc): 80% | Catalytic activity (%): removal of N-terminal Met (Met-tagged onconase; substrate MQD-Onc, listed as wild type MetAP): failed altogether | Catalytic activity (%): removal of N-terminal Met (Met-tagged onconase; substrate MQD-Onc, listed as wild type enzyme): no activity | Catalytic activity (%): percent of penultimate residue removed (RC-RNase4): removed | Catalytic activity (%): removal of N-terminal Met (RC-RNase4): removed | Catalytic activity (%): efficiency of Met removal by wild type MetAP ([1]; substrate MAD-Onc): 100% | Catalytic activity (%): efficiency of Met removal by wild type MetAP ([1]; substrate MDD-Onc): ~20% | Catalytic activity (%): efficiency of Met removal by wild type MetAP ([1]; substrate MED-Onc): 0% | Catalytic activity (%): efficiency of Met removal by wild type MetAP ([1]; substrate MFD-Onc): 0% | Catalytic activity (%): efficiency of Met removal by wild type MetAP ([1]; substrate MGD-Onc): 100^c % | Catalytic activity (%): efficiency of Met removal by wild type MetAP ([1]; substrate MHD-Onc): 0% | Catalytic activity (%): efficiency of Met removal by wild type MetAP ([1]; substrate MID-Onc): ~20% | Catalytic activity (%): efficiency of Met removal by wild type MetAP ([1]; substrate MKD-Onc): 0% | Catalytic activity (%): efficiency of Met removal by wild type MetAP ([1]; substrate MLD-Onc): ~20% | Catalytic activity (%): efficiency of Met removal by wild type MetAP ([1]; substrate MMD-Onc): 0% | Catalytic activity (%): efficiency of Met removal by wild type MetAP ([1]; substrate MND-Onc): ~20% | Catalytic activity (%): efficiency of Met removal by wild type MetAP ([1]; substrate MPD-Onc): 80–90% | Catalytic activity (%): efficiency of Met removal by wild type MetAP ([1]; substrate MQD-Onc): 0% | Catalytic activity (%): efficiency of Met removal by wild type MetAP ([1]; substrate MRD-Onc): 0% | Catalytic activity (%): efficiency of Met removal by wild type MetAP ([1]; substrate MSD-Onc): 80–90% | Catalytic activity (%): efficiency of Met removal by wild type MetAP ([1]; substrate MTD-Onc): 80–90% | Catalytic activity (%): efficiency of Met removal by wild type MetAP ([1]; substrate MVD-Onc): 80–90% | Catalytic activity (%): efficiency of Met removal by wild type MetAP ([1]; substrate MWD-Onc): 0% | Catalytic activity (%): efficiency of Met removal by wild type MetAP ([1]; substrate MWD-Onc, listed as wild type MetAP): inactive | Catalytic activity (%): efficiency of Met removal by wild type MetAP ([1]; substrate MYD-Onc): 0% | Catalytic activity (%): efficiency of Met removal by wild type MetAP ([1]; substrate MYD-Onc, listed as wild type MetAP): inactive

B2: C59S: E. coli MetAP mutation in the putative substrate-binding pocket (protein, UniProt P0AE18 2-264, looked up, variant C59S)
Methionine aminopeptidase: AISIKTPEDIEKMRVAGRLAAEVLEMIEPYVKPGVSTGELDRICNDYIVNEQHAVSASLGYHGYPKSVCISINEVVCHGIPDDAKLLKDGDIVNIDVTVIKDGFHGDTSKMFIVGKPTIMGERLCRITQESLYLALRMVKPGINLREIGAAIQKFVEAEGFSVVREYCGHGIGRGFHEEPQVLHYDSRETNVVLKPGMTFTIEPMVNAGKKEIRTMKDGWTVKTKDRSLSAQYEHTIVVTDNGCEILTLRKDDTIPAIISHDE
Catalytic activity, % activity of the wild type [2]: do not reduce catalytic activity

B3: Y65F: E. coli MetAP mutation in the putative substrate-binding pocket (protein, UniProt P0AE18 2-264, looked up, variant Y65F)
Methionine aminopeptidase: B2 Methionine aminopeptidase with S58C, Y64F
Catalytic activity, % activity of the wild type [2]: do not reduce catalytic activity

B4: Y62F: E. coli MetAP mutation in the putative substrate-binding pocket (protein, UniProt P0AE18 2-264, looked up, variant Y62F)
Methionine aminopeptidase: B2 Methionine aminopeptidase with S58C, Y61F
Catalytic activity, % activity of the wild type [2]: do not reduce catalytic activity

B5: W221L: E. coli MetAP mutation in the putative substrate-binding pocket (protein, UniProt P0AE18 2-264, looked up, variant W221L)
Methionine aminopeptidase: B2 Methionine aminopeptidase with S58C, W220L
Catalytic activity, % activity of the wild type [2]: 27%

B6: F177L: E. coli MetAP mutation in the putative substrate-binding pocket (protein, UniProt P0AE18 2-264, looked up, variant F177L)
Methionine aminopeptidase: B2 Methionine aminopeptidase with S58C, F176L
Catalytic activity, % activity of the wild type [2]: do not reduce catalytic activity

B7: C70S: E. coli MetAP mutation in the putative substrate-binding pocket (protein, UniProt P0AE18 2-264, looked up, variant C70S)
Methionine aminopeptidase: B2 Methionine aminopeptidase with S58C, C69S
Catalytic activity, % activity of the wild type [2]: 54%
